Results published in US20240327516A1 (Zymeworks, published 2024).
Like-named read-outs stand apart in the source and are kept apart here.

B1: v21791, trivalent and bispecific antibody construct [MSLN (2 Fab) x CD3 (1 Fab)] (bispecific antibody, human IgG1, kappa, lambda, L234A L235A)
heavy 1: not shown
heavy 2: QVQLVQSGAEVKKPGASVKVSCKASGYSFTGYTMNWVRQAPGQGLEWMGLITPYNGASSYNQKFRGKATMTVDTSTSTVYMELSSLRSEDTAVYYCARGGYDGRGFDYWGQGTLVTVSSASTKGPSVFPRAPSSKSTSGGTAALGCLVKDYFPEPVTVSWNSGALTSGVHTFPAVLQSSGLYKLSSVVTVPSSSLGTQTYICNVNHKPSNTKVDKKVEPKSCDKTHTCPPCPAPEAAGGPSVFLFPPKPKDTLMISRTPEVTCVVVSVSHEDPEVKFNWYVDGVEVHNAKTKPREEQYNSTYRVVSVLTVLHQDWLNGKEYKCKVSNKALPAPIEKTISKAKGQPREPQVYVLPPSRDELTKNQVSLLCLVKGFYPSDIAVEWESNGQPENNYLTWPPVLDSDGSFFLYSKLTVDKSRWQQGNVFSCSVMHEALHNHYTQKSLSLSPG
light 1: NFMLTQPHSVSESPGKTVTISCKRNTGNIGSNYVNWYQQHEGSSPTTIIYRNDKRPDGVSDRFSGSIDRSSKSASLTISNLKTEDEADYFCQSYSSGFIFGGGTKLTVLGQPKAAPSVTLFPPSSEQLQANKARLVCLISDFYPGAVTVAWKADSSPVKAGVETTTPSKQSNNKYAASSYLSLTPEQWKSHKSYSCQVTHEGSTVEKTVAPAECS
light 2: DIQMTQSPSSLSASVGDRVTITCSASSSVSYMHWYQQKSGKAPKLLIYDTSKLASGVPSRFSGSGSGTDFTLTISSLQPEDFATYYCQQWSGYPLTFGQGTKLEIKRTVAAPSVFIFPPSDEQLKSGTASVGCWLNNFYPREAKVQWKVDNALQSGNSQESVTEQDSKDSTYSLDSTLELSKADYEKHKVYACEVTHQGLSSPVTKSFNRGEC
notes: also called Fab^3 construct; triple-Fab construct
B2: v29048, trivalent and bispecific antibody construct [MSLN (2 scFv) x CD3 (1 Fab)] (bispecific antibody, human IgG1, lambda, L234A L235A)
heavy 1: not shown
heavy 2: EVQLLESGGGLVQPGGSVRISCAASGYSFTGYTMNWVRQAPGKGLEWIGLITPYSGASSYADSFKGRATLSVDNSKNTAYMQLNSLRAEDTAVYYCARGGYDGRGFDYWGQGTLVTVSSGGGGSGGGGSGGGGSDIQLTQSPSSLSASVGDRVTMTCSASSSVSYMHWYQQKPGKAPKLWIYDTSKLASGVPSRFSGSGSGTDYTLTISSVQPEDFATYYCQQWSKHPLTFGQGTKVEIKAAEPKSSDKTHTCPPCPAPEAAGGPSVFLFPPKPKDTLMISRTPEVTCVVVSVSHEDPEVKFNWYVDGVEVHNAKTKPREEQYNSTYRVVSVLTVLHQDWLNGKEYKCKVSNKALPAPIEKTISKAKGQPREPQVYVLPPSRDELTKNQVSLLCLVKGFYPSDIAVEWESNGQPENNYLTWPPVLDSDGSFFLYSKLTVDKSRWQQGNVFSCSVMHEALHNHYTQKSLSLSPG
light: NFMLTQPHSVSESPGKTVTISCKRNTGNIGSNYVNWYQQHEGSSPTTIIYRNDKRPDGVSDRFSGSIDRSSKSASLTISNLKTEDEADYFCQSYSSGFIFGGGTKLTVLGQPKAAPSVTLFPPSSEELQANKATLVCLISDFYPGAVTVAWKADSSPVKAGVETTTPSKQSNNKYAASSYLSLTPEQWKSHRSYSCQVTHEGSTVEKTVAPTECS
B3: v21815, bivalent and bispecific antibody construct [MSLN (1 Fab) x CD3 (1 scFv)] (bispecific antibody, human IgG1, kappa, L234A L235A)
heavy 1: not shown
heavy 2: QVQLVQSGAEVKKPGASVKVSCKASGYSFTGYTMNWVRQAPGQGLEWMGLITPYNGASSYNQKFRGKATMTVDTSTSTVYMELSSLRSEDTAVYYCARGGYDGRGFDYWGQGTLVTVSSASTKGPSVFPLAPSSKSTSGGTAALGCLVKDYFPEPVTVSWNSGALTSGVHTFPAVLQSSGLYSLSSVVTVPSSSLGTQTYICNVNHKPSNTKVDKKVEPKSCDKTHTCPPCPAPEAAGGPSVFLFPPKPKDTLMISRTPEVTCVVVSVSHEDPEVKFNWYVDGVEVHNAKTKPREEQYNSTYRVVSVLTVLHQDWLNGKEYKCKVSNKALPAPIEKTISKAKGQPREPQVYVLPPSRDELTKNQVSLLCLVKGFYPSDIAVEWESNGQPENNYLTWPPVLDSDGSFFLYSKLTVDKSRWQQGNVFSCSVMHEALHNHYTQKSLSLSPG
light: DIQMTQSPSSLSASVGDRVTITCSASSSVSYMHWYQQKSGKAPKLLIYDTSKLASGVPSRFSGSGSGTDFTLTISSLQPEDFATYYCQQWSGYPLTFGQGTKLEIKRTVAAPSVFIFPPSDEQLKSGTASVVCLLNNFYPREAKVQWKVDNALQSGNSQESVTEQDSKDSTYSLSSTLTLSKADYEKHKVYACEVTHQGLSSPVTKSFNRGEC
notes: also called 1x1 construct; 1+1 anti-CD3 scFv x anti-MSLN Fab construct
B4: v18490, anti-MSLN antibody (mAb, MSLN (SS) Fab x 2) (antibody, human IgG1, kappa, L234A L235A)
heavy 1: QVQLVQSGAEVKKPGASVKVSCKASGYSFTGYTMNWVRQAPGQGLEWMGLITPYNGASSYNQKFRGKATMTVDTSTSTVYMELSSLRSEDTAVYYCARGGYDGRGFDYWGQGTLVTVSSASTKGPSVFPLAPSSKSTSGGTAALGCLVKDYFPEPVTVSWNSGALTSGVHTFPAVLQSSGLYSLSSVVTVPSSSLGTQTYICNVNHKPSNTKVDKKVEPKSCDKTHTCPPCPAPEAAGGPSVFLFPPKPKDTLMISRTPEVTCVVVSVSHEDPEVKFNWYVDGVEVHNAKTKPREEQYNSTYRVVSVLTVLHQDWLNGKEYKCKVSNKALPAPIEKTISKAKGQPREPQVYVLPPSRDELTKNQVSLLCLVKGFYPSDIAVEWESNGQPENNYLTWPPVLDSDGSFFLYSKLTVDKSRWQQGNVFSCSVMHEALHNHYTQKSLSLSPG
heavy 2: not shown
light: DIQMTQSPSSLSASVGDRVTITCSASSSVSYMHWYQQKSGKAPKLLIYDTSKLASGVPSRFSGSGSGTDFTLTISSLQPEDFATYYCQQWSGYPLTFGQGTKLEIKRTVAAPSVFIFPPSDEQLKSGTASVVCLLNNFYPREAKVQWKVDNALQSGNSQESVTEQDSKDSTYSLSSTLTLSKADYEKHKVYACEVTHQGLSSPVTKSFNRGEC
B5: v31926, negative control antibody [Hemagglutinin (HA) (2 scFv) x CD3 (1 Fab)] (bispecific antibody)
heavy 1: not shown
heavy 2: QVQLVQSGAEVKKPGASVRVSCRASGYIFTESGITWVRQAPGQGLEWMGWISGYSGDTKYAQKLQGRVTMTKDTSTTTAYMELRSLRYDDTAVYYCARDVQYSGSYLGAYYFDYWSPGTLVTVSSGGGGSGGGGSGGGGSGGGQSVLTQPPSASGTPGQRVTISCSGSSSNIGTNYVYWYQQFPGTAPKLLIYRSYQRPSGVPDRFSGSKSGSSASLAISGLQSEDEADYYCATWDDSLDGWVFGGGTKLTVLAAEPKSSDKTHTCPPCPAPEAAGGPSVFLFPPKPKDTLMISRTPEVTCVVVSVSHEDPEVKFNWYVDGVEVHNAKTKPREEQYNSTYRVVSVLTVLHQDWLNGKEYKCKVSNKALPAPIEKTISKAKGQPREPQVYVLPPSRDELTKNQVSLLCLVKGFYPSDIAVEWESNGQPENNYLTWPPVLDSDGSFFLYSKLTVDKSRWQQGNVFSCSVMHEALHNHYTQKSLSLSPG
light: NFMLTQPHSVSESPGKTVTISCKRNTGNIGSNYVNWYQQHEGSSPTTIIYRNDKRPDGVSDRFSGSIDRSSKSASLTISNLKTEDEADYFCQSYSSGFIFGGGTKLTVLGQPKAAPSVTLFPPSSEELQANKATLVCLISDFYPGAVTVAWKADSSPVKAGVETTTPSKQSNNKYAASSYLSLTPEQWKSHRSYSCQVTHEGSTVEKTVAPTECS
B6: v29045, trivalent and bispecific antibody construct [MSLN (2 scFv) x CD3 (1 Fab)] (bispecific antibody, human IgG1, lambda, L234A L235A)
heavy 1: not shown
heavy 2: QVQLVQSGAEVKKPGASVKISCKASGYSFTGYTMNWVRQAPGQGLEWIGLITPYSGASSYAQKFQGRATLTVDKSTSTAYMELSSLRSEDTAVYYCARGGYDGRGFDYWGQGTLVTVSSGGGGSGGGGSGGGGSEIVLTQSPATLSLSPGERVTMSCSASSSVSYMHWYQQKPGQAPRLWIYDTSKLASGVPARFSGSGSGTDYTLTISSVEPEDFAVYYCQQWSGYPLTFGQGTKVEIKAAEPKSSDKTHTCPPCPAPEAAGGPSVFLFPPKPKDTLMISRTPEVTCVVVSVSHEDPEVKFNWYVDGVEVHNAKTKPREEQYNSTYRVVSVLTVLHQDWLNGKEYKCKVSNKALPAPIEKTISKAKGQPREPQVYVLPPSRDELTKNQVSLLCLVKGFYPSDIAVEWESNGQPENNYLTWPPVLDSDGSFFLYSKLTVDKSRWQQGNVFSCSVMHEALHNHYTQKSLSLSPG
light: NFMLTQPHSVSESPGKTVTISCKRNTGNIGSNYVNWYQQHEGSSPTTIIYRNDKRPDGVSDRFSGSIDRSSKSASLTISNLKTEDEADYFCQSYSSGFIFGGGTKLTVLGQPKAAPSVTLFPPSSEELQANKATLVCLISDFYPGAVTVAWKADSSPVKAGVETTTPSKQSNNKYAASSYLSLTPEQWKSHRSYSCQVTHEGSTVEKTVAPTECS

Tests used:
[1] = molecular target: T1, CD3 on CD3+ Jurkat cells and primary human T cells (human, UniProt P07766 23-207); assay: flow cytometry on primary human T cells, apparent affinity
T1 construct: whole, on cells; also called native CD3; CD3ε

[2] = molecular target: T2, mesothelin (MSLN) on MSLN-expressing tumor cells (human, UniProt Q13421 296-598)
[3] = molecular target: T2, mesothelin (MSLN) on MSLN-expressing …; assay: cell-based or functional assay
[4] = molecular target: T2, mesothelin (MSLN) on MSLN-expressing …; remark: listed apart in the source
[5] = molecular target: T1, CD3 on CD3+ Jurkat cells and primary …; assay: whole-cell ELISA on CD3+ Jurkat cells, apparent affinity; Jurkat cells
[6] = molecular target: T1, CD3 on CD3+ Jurkat cells and primary …; assay: whole-cell ELISA on CD3+ Jurkat cells, apparent affinity; main value of the cell, outside the parentheses
[7] = molecular target: MSLN (form in the assay not stated) (UniProt Q13421 296-580); assay: method and antigen form not stated in Table 12
[8] = molecular target: T2, mesothelin (MSLN) on MSLN-expressing …; assay: cell-based or functional assay; remark: listed apart in the source
[9] = molecular target: T2, mesothelin (MSLN) on MSLN-expressing …; assay: whole-cell flow cytometry on OVCAR-3 cells, apparent affinity
[10] = molecular target: T2, mesothelin (MSLN) on MSLN-expressing …; remark: listed apart in the source
[11] = molecular target: T1, CD3 on CD3+ Jurkat cells and primary …; assay: cell ELISA on whole CD3+ Jurkat cells (HRP anti-human IgG Fc, A 450nm)
[12] = molecular target: T1, CD3 on CD3+ Jurkat cells and primary …; assay: whole-cell ELISA on CD3+ Jurkat cells, apparent affinity
[13] = molecular target: T1, CD3 on CD3+ Jurkat cells and primary …; assay: flow cytometry on primary human CD4+ T cells (anti-IgG-Fc detection, geo MFI)
[14] = molecular target: T2, mesothelin (MSLN) on MSLN-expressing …; assay: flow cytometry on MSLN+ OVCAR-3 cells (Alexa Fluor 647 anti-IgG-Fc, MFI)
[15] = molecular target: T1, CD3 on CD3+ Jurkat cells and primary …; assay: flow cytometry on primary human CD8+ T cells (anti-IgG-Fc detection, geo MFI)
[16] = molecular target: T2, mesothelin (MSLN) on MSLN-expressing …; remark: listed apart in the source
[17] = molecular target: T1, CD3 on CD3+ Jurkat cells and primary …; assay: whole-cell flow cytometry on primary human T cells, apparent affinity

T1 sequence (P07766 23-207): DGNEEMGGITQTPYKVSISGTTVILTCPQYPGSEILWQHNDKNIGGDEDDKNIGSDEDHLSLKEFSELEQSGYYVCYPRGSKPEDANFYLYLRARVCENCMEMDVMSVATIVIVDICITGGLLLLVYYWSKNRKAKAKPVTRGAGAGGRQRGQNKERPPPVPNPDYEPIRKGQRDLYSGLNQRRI
T2 sequence (Q13421 other isoform, or with tags, fused parts or gaps limits assumed): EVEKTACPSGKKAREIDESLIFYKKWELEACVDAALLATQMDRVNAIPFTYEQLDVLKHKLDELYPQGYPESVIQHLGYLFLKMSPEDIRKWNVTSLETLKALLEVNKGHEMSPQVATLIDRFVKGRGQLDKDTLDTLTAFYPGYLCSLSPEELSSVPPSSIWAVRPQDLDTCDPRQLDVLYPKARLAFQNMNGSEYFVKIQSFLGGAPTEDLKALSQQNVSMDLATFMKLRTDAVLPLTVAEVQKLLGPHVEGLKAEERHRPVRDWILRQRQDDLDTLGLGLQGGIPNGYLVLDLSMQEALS
MSLN (form in the assay not stated), sequence (Q13421 other isoform, or with tags, fused parts or gaps limits assumed): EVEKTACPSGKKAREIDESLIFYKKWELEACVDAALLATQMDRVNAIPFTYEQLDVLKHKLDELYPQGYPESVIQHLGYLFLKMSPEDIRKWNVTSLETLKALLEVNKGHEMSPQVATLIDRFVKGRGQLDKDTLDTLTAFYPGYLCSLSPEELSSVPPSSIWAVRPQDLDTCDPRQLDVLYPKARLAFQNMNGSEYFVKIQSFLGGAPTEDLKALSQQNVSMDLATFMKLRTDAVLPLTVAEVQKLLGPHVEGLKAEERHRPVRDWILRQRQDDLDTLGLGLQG

Binder	EC50 [1]	maximum killing of BxPC3 cells [3]	EC50 [4]	Affinity to MSln [7]	IC50 of T cell-dependent cytotoxicity on OVCAR-3 cells (pan T cells, E:T 5:1, 72 h) [8]	EC50 [12]	further results
B1	7.4 nM	60%	1.9 nM	–	–	–	EC50 (read off the curve) [2]: ~0.7 nM; EC50 [5]: 402 nM
B2	183 nM	–	0.5 nM	9.8 nM	0.0004 nM	–	EC50 [6]: 5.5 nM
B3	0.2 nM	35%	1.7 nM	–	–	2.4 nM	EC50 [9]: 6.7 nM; Kd [10]: ~1.73 nM; EC50 (read off the curve) [11]: ~2 nM; EC50 (read off the curve) [13]: ~2 nM; EC50 (read off the curve) [14]: ~7 nM; EC50 (read off the curve) [15]: ~2 nM; EC50 (read off the curve) [16]: ~2 nM
B4	–	–	1.6 nM	–	–	–	–
B5	–	–	–	–	–	–	EC50 [17]: 102 nM
B6	–	–	0.4 nM	62.6 nM	0.0272 nM	1.3 nM	–
